The supplement of paper PMC9112550, “Optimization of the antimicrobial peptide Bac7 by deep mutational scanning” (BMC Biology, 2022)

Tested on: Escherichia coli TOP10
Assay: shrunken log2 fold change of peptide-encoding DNA abundance (4.5 h post-induction vs induction); higher = less antimicrobial activity (less host growth inhibition)
Conditions: time post-induction: 4.5 h; library: site-saturation at positions 5, 18, 19, 20
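Further: peptides expressed intracellularly from a pBAD plasmid library in pooled LB shake-flask culture, induced with 0.3% L-arabinose, DNA abundance read by NGS, three biological replicates, DESeq2 with apeglm shrinkage.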

Row | Sequence | shrunken log2 fold change
1 | RRIRTRPPRLPRPRPRPCMWPRP | 0.0746
2 | RRIRRRPPRLPRPRPRPRWAPRP | 0.206
3 | RRIRYRPPRLPRPRPRPTQAPRP | -0.00154
4 | RRIRRRPPRLPRPRPRPNTYPRP | -0.336
5 | RRIRQRPPRLPRPRPRPDDEPRP | -0.0396
6 | RRIRARPPRLPRPRPRPPLCPRP | 0.762
7 | RRIRYRPPRLPRPRPRPMEPPRP | -0.0132
8 | RRIRVRPPRLPRPRPRPDQPPRP | 0.166
9 | RRIRQRPPRLPRPRPRPHSCPRP | -0.194
10 | RRIRHRPPRLPRPRPRPTDIPRP | -0.668
11 | RRIRCRPPRLPRPRPRPTAHPRP | 0.181
12 | RRIRNRPPRLPRPRPRPFDYPRP | -0.262
13 | RRIRERPPRLPRPRPRPRMVPRP | -0.462
14 | RRIRERPPRLPRPRPRPHPNPRP | -0.0522
15 | RRIRRRPPRLPRPRPRPACLPRP | 0.623
16 | RRIRQRPPRLPRPRPRPWDSPRP | -0.198
17 | RRIRERPPRLPRPRPRPWRTPRP | -0.259
18 | RRIRQRPPRLPRPRPRPKQGPRP | 0.401
19 | RRIRYRPPRLPRPRPRPSMGPRP | -0.613
20 | RRIRFRPPRLPRPRPRPHMNPRP | -0.774
21 | RRIRWRPPRLPRPRPRPYGIPRP | -0.00133
22 | RRIRMRPPRLPRPRPRPLPWPRP | 1.74

Row | Sequence | shrunken log2 fold change
23 | RRIRRRPPRLPRPRPRPLHTPRP | 0.321
24 | RRIRNRPPRLPRPRPRPTWHPRP | 0.0157
25 | RRIRHRPPRLPRPRPRPAWWPRP | 0.157
26 | RRIRKRPPRLPRPRPRPDNWPRP | 0.235
27 | RRIRDRPPRLPRPRPRPSECPRP | -0.043
28 | RRIRVRPPRLPRPRPRPIDDPRP | -0.14
29 | RRIRYRPPRLPRPRPRPGIEPRP | -0.276
30 | RRIRMRPPRLPRPRPRPDEDPRP | -0.0149
31 | RRIRTRPPRLPRPRPRPGVHPRP | -0.055
32 | RRIRFRPPRLPRPRPRPCVVPRP | -0.379
33 | RRIRYRPPRLPRPRPRPCIRPRP | -0.023
34 | RRIRSRPPRLPRPRPRPCIIPRP | 0.00867
35 | RRIRGRPPRLPRPRPRPPDGPRP | 1.99
36 | RRIRCRPPRLPRPRPRPTTNPRP | 0.0115
37 | RRIRGRPPRLPRPRPRPYYRPRP | -0.0655
38 | RRIRERPPRLPRPRPRPVSHPRP | -0.0904
39 | RRIRARPPRLPRPRPRPNDIPRP | -0.448
40 | RRIRWRPPRLPRPRPRPAWMPRP | 0.139
41 | RRIRSRPPRLPRPRPRPFWDPRP | 0.0853
42 | RRIRRRPPRLPRPRPRPRQGPRP | 0.298
43 | RRIRCRPPRLPRPRPRPTEWPRP | 0.063
44 | RRIRGRPPRLPRPRPRPKVWPRP | 0.665

Row | Sequence | shrunken log2 fold change
45 | RRIRRRPPRLPRPRPRPSPIPRP | 0.11
46 | RRIRARPPRLPRPRPRPPITPRP | 0.261
47 | RRIRYRPPRLPRPRPRPSRYPRP | -0.122
48 | RRIRSRPPRLPRPRPRPQATPRP | -0.107
49 | RRIRNRPPRLPRPRPRPPYYPRP | -0.575
50 | RRIRFRPPRLPRPRPRPGQPPRP | 0.199
51 | RRIRPRPPRLPRPRPRPYVCPRP | -0.73
52 | RRIRQRPPRLPRPRPRPHYQPRP | -0.0204
53 | RRIRARPPRLPRPRPRPNFQPRP | -0.0343
54 | RRIRKRPPRLPRPRPRPGPAPRP | 1.05
55 | RRIRARPPRLPRPRPRPNLSPRP | -0.0536
56 | RRIRDRPPRLPRPRPRPCVIPRP | 0.1
57 | RRIRMRPPRLPRPRPRPHHDPRP | 0.0126
58 | RRIRCRPPRLPRPRPRPVPTPRP | 0.116
59 | RRIRFRPPRLPRPRPRPPIPPRP | 0.257
60 | RRIRSRPPRLPRPRPRPTAHPRP | 0.284
61 | RRIRNRPPRLPRPRPRPETHPRP | -0.0861
62 | RRIRARPPRLPRPRPRPIHWPRP | 0.0725
63 | RRIRPRPPRLPRPRPRPMSDPRP | -0.195
64 | RRIRFRPPRLPRPRPRPDSYPRP | -0.236
65 | RRIRWRPPRLPRPRPRPAIAPRP | 0.242
66 | RRIRWRPPRLPRPRPRPNLGPRP | 0.0106

Row | Sequence | shrunken log2 fold change
67 | RRIRSRPPRLPRPRPRPCDQPRP | -0.0341
68 | RRIRWRPPRLPRPRPRPAYCPRP | -0.0978
69 | RRIRMRPPRLPRPRPRPAAMPRP | 0.915
70 | RRIRDRPPRLPRPRPRPQTKPRP | -0.115
71 | RRIRVRPPRLPRPRPRPAQPPRP | 0.228
72 | RRIRWRPPRLPRPRPRPVEPPRP | 0.546
73 | RRIRRRPPRLPRPRPRPARVPRP | 0.349
74 | RRIRFRPPRLPRPRPRPPMWPRP | 0.486
75 | RRIRWRPPRLPRPRPRPWTIPRP | -0.0951
76 | RRIRQRPPRLPRPRPRPTTFPRP | -0.485
77 | RRIRYRPPRLPRPRPRPLGWPRP | 0.0401
78 | RRIRKRPPRLPRPRPRPDGMPRP | -0.00135
79 | RRIRYRPPRLPRPRPRPEIGPRP | 0.066
80 | RRIRMRPPRLPRPRPRPMEAPRP | 0.0555
81 | RRIRKRPPRLPRPRPRPEGFPRP | 0.802
82 | RRIRCRPPRLPRPRPRPDYCPRP | 0.25
83 | RRIRFRPPRLPRPRPRPTIPPRP | -0.562
84 | RRIRRRPPRLPRPRPRPIHPPRP | -0.261
85 | RRIRCRPPRLPRPRPRPATHPRP | -0.0187
86 | RRIRVRPPRLPRPRPRPETWPRP | 0.0351
87 | RRIRMRPPRLPRPRPRPFGRPRP | -0.00674
88 | RRIRYRPPRLPRPRPRPQCPPRP | -0.15

Row | Sequence | shrunken log2 fold change
89 | RRIRVRPPRLPRPRPRPSMDPRP | 2.34
90 | RRIRWRPPRLPRPRPRPAGQPRP | 0.218
91 | RRIRHRPPRLPRPRPRPFEYPRP | -0.219
92 | RRIRQRPPRLPRPRPRPLPLPRP | -0.287
93 | RRIRTRPPRLPRPRPRPMERPRP | 0.0039
94 | RRIRERPPRLPRPRPRPKRKPRP | 0.25
95 | RRIRWRPPRLPRPRPRPPFVPRP | 0.171
96 | RRIRGRPPRLPRPRPRPYQVPRP | 0.174
97 | RRIRGRPPRLPRPRPRPSDLPRP | 0.0731
98 | RRIRWRPPRLPRPRPRPYVWPRP | -0.0228
99 | RRIRRRPPRLPRPRPRPFVWPRP | -0.218
100 | RRIRARPPRLPRPRPRPYASPRP | -0.245
101 | RRIRYRPPRLPRPRPRPVWRPRP | 0.119
102 | RRIRIRPPRLPRPRPRPTFNPRP | -0.595
103 | RRIRVRPPRLPRPRPRPFNHPRP | -0.106
104 | RRIRGRPPRLPRPRPRPANVPRP | -0.126
105 | RRIRGRPPRLPRPRPRPYGCPRP | -0.091
106 | RRIRKRPPRLPRPRPRPHQTPRP | 0.202
107 | RRIRVRPPRLPRPRPRPSEMPRP | 0.0713
108 | RRIRMRPPRLPRPRPRPPLVPRP | 0.36
109 | RRIRRRPPRLPRPRPRPINFPRP | -0.0729
